Assay results taken from article PMC11393077.

Molecular target: CTD peptide containing two heptad repeats with one Ser5 phosphorylation site
Test: fluorescence polarisation

- Kd: 21 µM
Substance: Human prolyl isomerase 1 (PIN1) (from UniProt Q13526 1-163) (enzyme)
